How the values were obtained:
[1] = Sialyltransferase activity of samples after each purification step; assay type: biochemical; settings: for Specific activity (U/mg) / Total activity (U): Bis-Tris pH 6, 5 minutes, 25° C.
Experimental: Sialyltransferase activity was measured as described in J. Biochem., 120, 104-110 (1996) (which is hereby incorporated by reference in its entirety). More specifically, the enzymatic reaction was accomplished by using CMP-NeuAc (70 nmol, containing about 20,000 cpm CMP-NeuAc in which NeuAc was labeled with ^14C; NeuAc represents N-acetylneuraminic acid) as a glycosyl donor substrate, lactose (1.25 μmol) as a glycosyl acceptor substrate, NaCl added to give a concentration of 0.5 M, and the enzyme-containing reaction solution (30 μl) prepared as described above. The enzymatic reaction was carried out at 25° C. for about 10 to 180 minutes. After completion of the reaction, 1.97 ml of 5 mM phosphate buffer (pH 6.8) was added to the reaction solution, which was then applied to a Dowex 1×8 (PO4^3− form, 0.2×2 cm, BIO-RAD) column. The radioactivity was measured for the reaction product, i.e., sialyllactose contained in the eluate (0 to 2 ml) from this column to calculate the enzyme activity. One enzyme unit (1 U) is defined as the amount of enzyme required to transfer 1 micromole of sialic acid per minute.
The enzyme activity was measured by the method reported in J. Biochem. 120, 104-110 (1996), in the same manner as described in Example 1 under conditions as indicated in the footnote of Table 3-1. For protein quantification, a Coomassie Protein Assay Reagent (PIERCE) was used according to the instruction manual attached thereto. One enzyme unit (1U) was defined as the amount of enzyme required to transfer 1 micromole of sialic acid per minute.
Reaction time: 5 minutes Reaction temperature: 25° C.
The enzyme activity was measured by the method reported in J. Biochem. 120, 104-110 (1996), in the same manner as described in Example 1 under conditions as indicated in the footnote of Table 3-2. For protein quantification, a Coomassie Protein Assay Reagent (PIERCE) was used according to the instruction manual attached thereto. One enzyme unit (1U) was defined as the amount of enzyme required to transfer 1 micromole of sialic acid per minute.
Reaction Conditions Reaction composition:
Reaction time: 5 minutes Reaction temperature: 30° C.

[2] = Sialic acid transfer reaction using various glycosyl acceptor substrates (monosaccharides, disaccharides, trisaccharide); assay type: biochemical; settings: for Sialyltransferase activity: pH 5.0, 30° C., 500 mM NaCl
Source text: Cell homogenates prepared from E. coli cells into which JT-ISH-224-derived N1C0 had been introduced and from Photobacterium damselae strain JT0160 were each purified by ion exchange chromatography and hydroxyapatite chromatography to give an electrophoretically single band. The thus purified β-galactoside-α2,6-sialyltransferases were used in the following experiment in order to examine the presence or absence of sialyltransferase activity toward various monosaccharides, disaccharides and trisaccharides.
A reaction solution (24 μl) was prepared to contain CMP-^14C-NeuAc-containing CMP-NeuAc as a glycosyl donor substrate (10.9 nmol (8485 cpm), final concentration in the reaction solution: 0.455 mM), any of various glycosyl acceptor substrates dissolved in 20 mM cacodylate buffer (pH 5.0) (1 μmol, final concentration in the reaction solution: 42 mM), sialyltransferase (3.0 mU for JT-ISH-224-derived N1C0, 4.3 mU for JT0160) and NaCl (final concentration in the reaction solution: 500 mM), and reacted at 30° C. for 2 minutes or 60 minutes. The monosaccharides used as glycosyl acceptor substrates were the following 8 types: methyl-α-D-galactopyranoside (Gal-α-OMe), methyl-β-D-galactopyranoside (Gal-β-OMe), methyl-α-D-glucopyranoside (Glc-α-OMe), methyl-β-D-glucopyranoside (Glc-β-OMe), methyl-α-D-mannopyranoside (Man-α-OMe), methyl-β-D-mannopyranoside (Man-β-OMe), N-acetylgalactosamine ([…]), and N-acetylglucosamine ([…]). The disaccharides used were the following 5 types: lactose (Gal-β1,4-Glc), N-acetyllactosamine (Gal-β1,4-GlcNAc), methyl-β-D-galactopyranosyl-β1,3-N-acetylglucosaminide (Gal-β1,3-GlcNAc-β-OMe), methyl-α-D-galactopyranosyl-α1,3-galactopyranoside (Gal-α1,3-Gal-α-OMe), and methyl-β-D-galactopyranosyl-β1,3-galactopyranoside (Gal-β1,3-Gal-β-OMe). The trisaccharide used was 2′-fucosyllactose (Fuc-α1,2-Galβ1,4-Glc). It should be noted that the final concentration was set to 8.4 mM for the sugar chains shown in Table 4-2, i.e., methyl-α-D-galactopyranosyl-α1,3-[…] (Gal-α1,3-Gal-α-OMe), methyl-β-D-galactopyranosyl-β1,3-galactosaminide (Gal-β1,3-Gal-β-OMe) and 2′-fucosyllactose (Fuc-α1,2-Galβ1,4-Glc).
After completion of the enzymatic reaction, 1.98 ml of 5 mM phosphate buffer (pH 6.8) was added to the reaction solution to stop the enzymatic reaction. Then, the enzymatic reaction solution was diluted with 5 mM phosphate buffer (Ph 6.8) and applied in a volume of 2 ml to a AG1-×2Resin (PO4^3− form, 0.2×2 cm) column. This column was prepared as follows: AG1-×2Resin (OH^− form, BIO-RAD) was suspended in 1 M phosphate buffer (pH 6.8), and after 30 minutes, the resin was washed with distilled water and then suspended in distilled water. The eluate (0 to 2 ml) from this column was measured for its radioactivity. The eluate from this column contains the unreacted glycosyl acceptor substrate and the ^14C-NeuAc (N-acetylneuraminic acid)-bound reaction product which was generated by the reaction, whereas unreacted CMP-^14C-NeuAc is still retained on the column. Thus, the radioactivity of ^14C from each sialic acid-containing sugar chain generated as a result of the enzymatic reaction arises exclusively from the reaction product, so that the radioactivity of this fraction can be used to calculate the enzyme activity.
In the manner described above, the radioactivity of NeuAc transferred to each glycosyl acceptor substrate was measured to calculate the amount of transferred sialic acid.

[3] = after MONO Q (purified fraction)

B1: ISH224-N1C0 (protein, listed as Photobacterium sp.)
chain: MSEENTQSIIKNDINKTIIDEEYVNLEPINQSNISFTKHSWVQTCGTQQLLTEQNKESISLSVVAPRLDDDEKYCFDFNGVSNKGEKYITKVTLNVVAPSLEVYVDHASLPTLQQLMDIIKSEEENPTAQRYIAWGRIVPTDEQMKELNITSFALINNHTPADLVQEIVKQAQTKHRLNVKLSSNTAHSFDNLVPILKELNSFNNVTVTNIDLYDDGSAEYVNLYNWRDTLNKTDNLKIGKDYLEDVINGINEDTSNTGTSSVYNWQKLYPANYHFLRKDYLTLEPSLHELRDYIGDSLKQMQWDGFKKFNSKQQELFLSIVNFDKQKLQNEYNSSNLPNFVFTGTTVWAGNHEREYYAKQQINVINNAINESSPHYLGNSYDLFFKGHPGGGIINTLIMQNYPSMVDIPSKISFEVLMMTDMLPDAVAGIASSLYFTIPAEKIKFIVFTSTETITDRETALRSPLVQVMIKLGIVKEENVLFWADLPNCETGVCIAV
[1]; Crude enzyme solution
  Specific activity (U/mg): 12.0 U/mg
  Total activity (U): 13167 U
[1]; after Hydroxyapatite
  Specific activity (U/mg): 68.3 U/mg
  Total activity (U): 9448 U
[1]; [3]
  Specific activity (U/mg): 113 U/mg
  Total activity (U): 2720 U
[1]; after Q SEPHAROSE
  Specific activity (U/mg): 31.8 U/mg
  Total activity (U): 11794 U
[1]; purified fraction
  fold higher specific activity than Pasteurella multocida-derived β-galactoside-α2,3-sialyltransferase (60 U/mg): about 1.9 fold
  fold higher specific activity than β-galactoside-α2,6-sialyltransferase derived from Photobacterium damselae strain JT0160 (5.5 U/mg): about 21 fold
[2]; 14 monosaccharides, disaccharides and trisaccharide
  acceptor substrate specificity compared to the known JT0160 enzyme (in words): wider range of acceptor substrate specificity
[2]; acceptor 2′-Fucosyllactose (Fuc-α1,2-Galβ1,4-Glc), 8.4 mM, lactose = 100
  Sialyltransferase activity Relative activity (%): 92.1%
[2]; acceptor 2′-Fucosyllactose (Fuc-α1,2-Galβ1,4-Glc), 8.4 mM
  Sialyltransferase activity: 1.316 nmol/min
[2]; acceptor Lactose (Galβ1,4-Glc), 42 mM, Table 4-1
  Sialyltransferase activity: 1.875 nmol/min
[2]; acceptor Lactose (Galβ1,4-Glc), 42 mM, Table 4-1, set to 100
  Sialyltransferase activity Relative activity (%): 100.0%
[2]; acceptor Lactose (Galβ1,4-Glc), series of Table 4-2 (other acceptors 8.4 mM)
  Sialyltransferase activity: 1.428 nmol/min
[2]; acceptor Lactose (Galβ1,4-Glc), series of Table 4-2, set to 100
  Sialyltransferase activity Relative activity (%): 100.0%
[2]; acceptor Methylαgalactopyranoside (Galα-OMe), 42 mM, lactose = 100
  Sialyltransferase activity Relative activity (%): 2.0%
[2]; acceptor Methylαgalactopyranoside (Galα-OMe), 42 mM
  Sialyltransferase activity: 0.038 nmol/min
[2]; acceptor Methylαgalactopyranosyl α1,3-galactopyranoside (Galα1,3-Galα-OMe), 8.4 mM, lactose = 100
  Sialyltransferase activity Relative activity (%): 1.6%
[2]; acceptor Methylαgalactopyranosyl α1,3-galactopyranoside (Galα1,3-Galα-OMe), 8.4 mM
  Sialyltransferase activity: 0.023 nmol/min
[2]; acceptor Methylαglucopyranoside (Glcα-OMe), 42 mM, lactose = 100
  Sialyltransferase activity Relative activity (%): 0.4%
[2]; acceptor Methylαglucopyranoside (Glcα-OMe), 42 mM
  Sialyltransferase activity: 0.008 nmol/min
[2]; acceptor Methylαmannopyranoside (Manα-OMe), 42 mM, lactose = 100
  Sialyltransferase activity Relative activity (%): 0.5%
[2]; acceptor Methylαmannopyranoside (Manα-OMe), 42 mM
  Sialyltransferase activity: 0.010 nmol/min
[2]; acceptor Methylβ-galactopyranosylβ1,3-N-acetylglucosaminide (Galβ1,3-GlcNAcβ-OMe), 42 mM, lactose = 100
  Sialyltransferase activity Relative activity (%): 76.5%
[2]; acceptor Methylβ-galactopyranosylβ1,3-N-acetylglucosaminide (Galβ1,3-GlcNAcβ-OMe), 42 mM
  Sialyltransferase activity: 1.435 nmol/min
[2]; acceptor Methylβgalactopyranoside (Galβ-OMe), 42 mM, lactose = 100
  Sialyltransferase activity Relative activity (%): 59.2%
[2]; acceptor Methylβgalactopyranoside (Galβ-OMe), 42 mM
  Sialyltransferase activity: 1.110 nmol/min
[2]; acceptor Methylβgalactopyranosyl β1,3-galactopyranoside (Galβ1,3-Galβ-OMe), 8.4 mM, lactose = 100
  Sialyltransferase activity Relative activity (%): 67.5%
[2]; acceptor Methylβgalactopyranosyl β1,3-galactopyranoside (Galβ1,3-Galβ-OMe), 8.4 mM
  Sialyltransferase activity: 0.964 nmol/min
[2]; acceptor Methylβglucopyranoside (Glcβ-OMe), 42 mM, lactose = 100
  Sialyltransferase activity Relative activity (%): 0.5%
[2]; acceptor Methylβglucopyranoside (Glcβ-OMe), 42 mM
  Sialyltransferase activity: 0.009 nmol/min
[2]; acceptor Methylβmannopyranoside (Manβ-OMe), 42 mM, lactose = 100
  Sialyltransferase activity Relative activity (%): 0.4%
[2]; acceptor Methylβmannopyranoside (Manβ-OMe), 42 mM
  Sialyltransferase activity: 0.008 nmol/min
[2]; acceptor N-Acetylgalactosamine (GalNAc), 42 mM, lactose = 100
  Sialyltransferase activity Relative activity (%): 12.2%
[2]; acceptor N-Acetylgalactosamine (GalNAc), 42 mM
  Sialyltransferase activity: 0.228 nmol/min
[2]; acceptor N-Acetylglucosamine (GlcNAc), 42 mM, lactose = 100
  Sialyltransferase activity Relative activity (%): 0.4%
[2]; acceptor N-Acetylglucosamine (GlcNAc), 42 mM
  Sialyltransferase activity: 0.008 nmol/min
[2]; acceptor N-Acetyllactosamine (Gatβ1,4-GlcNAc), 42 mM, lactose = 100
  Sialyltransferase activity Relative activity (%): 99.3%
[2]; acceptor N-Acetyllactosamine (Gatβ1,4-GlcNAc), 42 mM
  Sialyltransferase activity: 1.861 nmol/min
